Source: PMC3852661, “Structural basis of SUFU–GLI interaction in human Hedgehog signalling regulation” (Acta Crystallographica Section D: Biological Crystallography, 2013)
Positions count from the first letter of the chain named. Names and notes keep the numbering of the source.

How the values were obtained:
[1] = Thermal stability of MBP-SUFU constructs; assay type: physicochemical; details: SYPRO Orange, 2.2 µM protein, no peptide, 50 mM Na HEPES pH 7.0, 50 mM NaCl, 5 mM β-mercaptoethanol; heated 20 to 90°C; triplicate
Procedure: Recombinant MBP-SUFU proteins were diluted to 2.6 µM in 50 mM Na HEPES pH 7.0, 50 mM NaCl, 5 mM β-mercaptoethanol; the peptides GLI1p and GLI1p-SH (Supplementary Table S1b), synthesized by Dr W. Mawby (University of Bristol), were dissolved in the same buffer. Proteins were spun at 14 000g for 20 min at 4°C before adding SYPRO Orange (Molecular Probes) to a final concentration of 6×. Reaction volumes of 25 µl were prepared in 96-well PCR plates with 2.2 µM protein/SYPRO Orange solution and, where applicable, 44 µM peptide. Plates were sealed with optical tape, heated from 20 to 90°C in 12 s 0.2°C steps in an iCycler and fluorescence was detected using an excitation wavelength of 470 nm and an emission wavelength of 570 nm.
To determine whether the IDR affects the GLI-binding properties of SUFU, we used a human GLI1-derived peptide (GLI1p; residues 115–131; Supplementary Table S1b) containing the highly conserved SYGH motif important for interaction with SUFU (Dunaeva et al., 2003[▶]) in a thermal stability assay with MBP-SUFU-FL and MBP-SUFU-Δ (Fig. 4 ▶ a). The addition of GLI1p stabilized both proteins: T m for MBP-SUFU-FL was shifted by 4°C and that for MBP-SUFU-Δ was shifted by 3.6°C. […] The GLI1 dose dependency of this effect was confirmed in a separate experiment with increasing GLI1p concentrations (Supplementary Fig. S7a).

GLI1 [2] = test: Co-immunoprecipitation with GLI1; assay type: binding; details: Cos-7 cell lysates, GLI1-FLAG and Myc-SUFU; four independent experiments
Procedure: Cos-7 cells were transfected separately with C-terminally FLAG-tagged GLI1 in pCMV5 (Andersson et al., 1989[▶]) and N-terminally Myc-tagged SUFU in pCMV-Script (Stratagene) using Fugene 6 (Roche). 24 h after transfection, the cells were lysed with 50 mM Tris–HCl pH 7.4, 150 mM NaCl, 1% NP-40, 0.25% sodium deoxycholate, 1 mM N-ethylmaleimide (Fluka), 1 mM dithiothreitol and cOmplete Mini protease inhibitors (Roche). Normalized lysates were combined and pre-incubated for 6 h. Co-immunoprecipitation was performed for 16 h using agarose-conjugated anti-FLAG M2 (Sigma–Aldrich) and anti-Myc 9b11 (Cell Signaling) antibodies. The beads were washed three times with 500 µl lysis buffer and the bound protein was eluted by boiling the beads in SDS–PAGE sample buffer and analyzed by Western blotting. Samples were separated by SDS–PAGE, transferred to polyvinylidene fluoride Immobilon-P membranes (Millipore) and probed using anti-Myc 71D10 (Cell Signaling) or anti-Myc 9E10 (Santa Cruz) antibodies and anti-DYKDDDDK tag antibody (Cell Signaling). Similar results were obtained in four independent experiments.

GLI2 = test: GLI2-induced reporter gene activity in HEK 293 cells; assay type: cell-based; details: transient transfection, HEK 293, 12GLI-RE-TKO-luc luciferase reporter, 48 h
Source text: (§1) SUFU variants with mutated IDR regions, the SUFU-Δ, SUFU-SH, SUFU-SH2 and SUFU-IDRfly constructs, were generated by replacing amino acids 279–360 of N-terminally Myc-tagged full-length SUFU in pcDNA3.1 (Invitrogen) with corresponding sequences synthesized at GenScript USA Inc. (Supplementary Table S1a). HEK 293 cells were transfected with a mixture of GLI1-FLAG or Myc-GLI2 (Roessler et al., 2005[▶]; a kind gift from Erich Roessler) and Myc-SUFU constructs together with 12GLI-RE-TKO-luc luciferase reporter (Kogerman et al., 1999[▶]) and pRL-SV40 (Promega) internal control using Fugene 6 or X-tremeGENE 9 (Roche) transfection reagent. Expression assays were carried out for 48 h, followed by luciferase activity measurements using a Dual Luciferase Activity Assay Kit (Promega). To verify the expression levels of transfected SUFU and GLI constructs, aliquots of cell lysates were separated by SDS–PAGE and subjected to immunoblot analysis as above. The densities of the visualized protein bands were quantified using the ImageJ 1.47v image-analysis and image-processing software (Schneider et al., 2012[▶]).

[3] = tested on: Hh pathway, Sufu −/− MEFs; test: Constitutive Hh pathway activity in Sufu −/− MEFs; assay type: cell-based, mouse; details: Gli-BS luciferase reporter
Procedure: Sufu ^−/− mouse embryonic fibroblast (MEF) cells (Svärd et al., 2006[▶]) were transfected with a mixture of p8x3′Gli-BS LucII or p8x3′Gli-mBS LucII reporter constructs (Sasaki et al., 1997[▶]; generous gifts from Hiroshi Sasaki) together with pRL-SV40 (Promega) internal control using Lipofectamine LTX with Plus reagent (Invitrogen) according to the manufacturer’s instructions. Following transfection, Sufu ^−/− MEF cells were grown until the culture reached confluency (24–48 h) and the cells were then switched to low-serum medium (0.5% FBS) with 100–200 nM SAG (kindly provided by Jan Bergman, Karolinska Institutet), 10 µM purmorphamine (Calbiochem) or Shh conditioned medium (1:4) and grown for an additional 48–72 h. Cell lysis and luciferase activity measurements were performed using a Dual Luciferase Activity Assay Kit (Promega). For statistical evaluation of reporter gene assays, a one-tailed paired Student’s t-test was used. All activity measurements were performed at least three times in independent experiments.

GLI1 [4] = test: GLI1-induced reporter gene activity in HEK 293 cells; assay type: cell-based; details: transient transfection, HEK 293, 12GLI-RE-TKO-luc luciferase reporter, 48 h
Source text: as §1

[5] = R123C germline mutation; ref Aavikko et al., 2012; cited from earlier work
Source text: SUFU is a tumour suppressor protein that is found to be inactivated most frequently (up to 50%) by germline mutations in children below the age of three presenting with medulloblastoma of the desmoplastic/nodular subtype (Slade et al., 2011[▶]; Brugières et al., 2012[▶]), whereas a somatic mutation frequency of about 10% has been reported for sporadic medulloblastomas of the desmoplastic subtype (Taylor et al., 2002[▶]). Moreover, germline or somatic mutations in the SUFU gene have recently been described in association with meningioma and chondrosarcoma (Aavikko et al., 2012[▶]; Kijima et al. ...

trypsin = test: Limited proteolysis with trypsin; assay type: physicochemical; details: 100 mM ammonium bicarbonate, 23°C
Procedure: SUFU32–484 cloned in pLJMBP6c was expressed in E. coli and purified as described above. The purified protein was digested with trypsin (Sigma–Aldrich) in 100 mM ammonium bicarbonate at 23°C. The protease was inactivated by adding 10 mM PMSF and sample-loading buffer followed by heating at 95°C for 5 min. Protein bands were separated by SDS–PAGE and visualized by Coomassie Blue staining. Proteolytic peptide fragments were identified by N-terminal sequencing (Alphalyse A/S) as well as MALDI–TOF and MALDI–TOF/TOF mass-spectrometric analyses (Ultraflex II and Autoflex III, Bruker Daltonics).

B1: MBP-SUFU-Δ: MBP-SUFU with amino acids 279–360 replaced by the heptamer sequence PSRGEDP (protein)
chain: PGLHAIYGECRRLYPDQPNPLQVTAIVKYWLGGPDPLDYVSMYRNVGSPSANIPEHWHYISFGLSDLYGDNRVHEFTGTDGPSGFGFELTFRLKRETGESAPPTWPAELMQGLARYVFQSENTFCSGDHVSWHSPLDNSESRIQHMLLTEDPQMQPVQTPFGVVTFLQIVGVCTEELHSAQQWNGQGILELLRTVPIAGGPWLITDMRRGETIFEIDPHLQERVDKGIETDGSNLSGVSAKCAWDDLPSRGEDPIRTRQLESVHLKFNQESGALIPLCLRGRLLHGRHFTYKSITGDMAITFVSTGVEGAFATEEHPYAAHGPWLQILLTEEFVEKMLEDLEDLTSPEEFKLPKEYSWPEKKLKVSILPDVVFDSPL
modifications: left off: MBP, N-terminal, kept | His6, C-terminal, state not stated
Tm [1]: 46.6 °C

B2: SUFU-FL: full-length SUFU, N-terminally Myc-tagged (protein)
chain: MAELRPSGAPGPTAPPAPGPTAPPAFASLFPPGLHAIYGECRRLYPDQPNPLQVTAIVKYWLGGPDPLDYVSMYRNVGSPSANIPEHWHYISFGLSDLYGDNRVHEFTGTDGPSGFGFELTFRLKRETGESAPPTWPAELMQGLARYVFQSENTFCSGDHVSWHSPLDNSESRIQHMLLTEDPQMQPVQTPFGVVTFLQIVGVCTEELHSAQQWNGQGILELLRTVPIAGGPWLITDMRRGETIFEIDPHLQERVDKGIETDGSNLSGVSAKCAWDDLSRPPEDDEDSRSICIGTQPRRLSGKDTEQIRETLRRGLEINSKPVLPPINPQRQNGLAHDRAPSRKDSLESDSSTAIIPHELIRTRQLESVHLKFNQESGALIPLCLRGRLLHGRHFTYKSITGDMAITFVSTGVEGAFATEEHPYAAHGPWLQILLTEEFVEKMLEDLEDLTSPEEFKLPKEYSWPEKKLKVSILPDVVFDSPLH
modifications: left off: Myc, N-terminal, kept
notes: full-length SUFU, N-terminally Myc-tagged
GLI1 binding in Co-IP (GLI1 [2]): no remarkable difference in GLI1 binding | repression of transcriptional activity induced by GLI2 (GLI2): efficiently repressed | suppression of constitutive Hh pathway activity [3]: suppress constitutive pathway activity in Sufu ^−/− cells (c) with similar efficiency | repression of transcriptional activity induced by GLI1 (GLI1 [4]): efficiently repressed

B3: R123C: SUFU R123C mutation segregated with tumour development in a family predisposed to meningiomas (protein, UniProt Q9UMX1 1-484, looked up, variant R123C)
Suppressor of fused homolog: B2 chain with R123C
inhibitory activity in cellular assays [5]: reduced inhibitory activity

B4: MBP-SUFU-FL: MBP fusion containing residues 32–483 of human SUFU and a C-terminal hexahistidine tag (protein)
chain: PGLHAIYGECRRLYPDQPNPLQVTAIVKYWLGGPDPLDYVSMYRNVGSPSANIPEHWHYISFGLSDLYGDNRVHEFTGTDGPSGFGFELTFRLKRETGESAPPTWPAELMQGLARYVFQSENTFCSGDHVSWHSPLDNSESRIQHMLLTEDPQMQPVQTPFGVVTFLQIVGVCTEELHSAQQWNGQGILELLRTVPIAGGPWLITDMRRGETIFEIDPHLQERVDKGIETDGSNLSGVSAKCAWDDLSRPPEDDEDSRSICIGTQPRRLSGKDTEQIRETLRRGLEINSKPVLPPINPQRQNGLAHDRAPSRKDSLESDSSTAIIPHELIRTRQLESVHLKFNQESGALIPLCLRGRLLHGRHFTYKSITGDMAITFVSTGVEGAFATEEHPYAAHGPWLQILLTEEFVEKMLEDLEDLTSPEEFKLPKEYSWPEKKLKVSILPDVVFDSPL
modifications: left off: MBP, N-terminal, kept | His6, C-terminal, state not stated
notes: MBP fusion containing residues 32–483 of human SUFU and a C-terminal hexahistidine tag
Tm [1]: 50.1 °C | protease-hypersensitive sites (trypsin): Several protease-hypersensitive sites were found clustered within residues 299–363
